Source: US20040258687A1

Biological target: guanylyl cyclase C (GC-C), as expressed on T84 human colon carcinoma cells (human) (UniProt P25092)
Test: cell-based or functional assay

Sequence of guanylyl cyclase C (GC-C), as expressed on T84 human colon carcinoma cells (human) (P25092 24-1073): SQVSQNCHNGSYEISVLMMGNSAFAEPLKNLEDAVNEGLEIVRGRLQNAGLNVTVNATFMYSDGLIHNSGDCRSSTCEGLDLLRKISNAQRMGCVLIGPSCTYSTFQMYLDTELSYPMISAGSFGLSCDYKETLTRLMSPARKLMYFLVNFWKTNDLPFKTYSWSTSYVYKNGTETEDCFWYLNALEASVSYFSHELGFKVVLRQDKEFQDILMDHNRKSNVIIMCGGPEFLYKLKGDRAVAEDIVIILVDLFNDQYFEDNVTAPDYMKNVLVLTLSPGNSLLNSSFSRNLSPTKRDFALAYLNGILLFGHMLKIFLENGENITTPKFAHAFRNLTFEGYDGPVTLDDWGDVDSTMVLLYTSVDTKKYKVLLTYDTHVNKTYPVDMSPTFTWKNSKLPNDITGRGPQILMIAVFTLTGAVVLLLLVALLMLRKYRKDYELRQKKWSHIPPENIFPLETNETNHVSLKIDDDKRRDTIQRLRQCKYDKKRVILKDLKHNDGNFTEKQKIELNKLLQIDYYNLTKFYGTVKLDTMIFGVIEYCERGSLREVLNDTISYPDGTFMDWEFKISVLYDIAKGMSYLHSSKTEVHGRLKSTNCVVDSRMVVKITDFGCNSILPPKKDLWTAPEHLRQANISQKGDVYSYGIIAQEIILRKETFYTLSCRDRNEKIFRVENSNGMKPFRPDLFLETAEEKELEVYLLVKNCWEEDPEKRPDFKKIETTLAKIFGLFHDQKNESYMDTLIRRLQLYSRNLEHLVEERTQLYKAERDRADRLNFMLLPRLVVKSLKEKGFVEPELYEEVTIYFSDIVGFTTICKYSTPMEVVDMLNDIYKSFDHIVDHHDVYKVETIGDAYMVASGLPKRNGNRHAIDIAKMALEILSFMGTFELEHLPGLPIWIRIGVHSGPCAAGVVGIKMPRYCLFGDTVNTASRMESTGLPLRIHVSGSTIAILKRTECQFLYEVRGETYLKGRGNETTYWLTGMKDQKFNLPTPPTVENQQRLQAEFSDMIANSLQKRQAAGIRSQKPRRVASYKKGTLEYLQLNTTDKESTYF

## E. coli heat-stable enterotoxin (ST) (peptide)
  EC50 for ST (cytostatic effect, in vitro TJU experiments): 10 nM
